Source: publication PMC13618070 (RNA (New York, N.Y.), 2025)
Substitutions are numbered along the chain they refer to. Numbers in names are those of the source. Each block holds one binder with its values, some of them ahead of it.

Target: DCR-1•DRH-1 complex (DCR-1•(OSF)DRH-1) (C. elegans, UniProt P34529 1-1910; G5EDI8 1-1037)
Experiment: pull-down

percent recovery normalized to WT RDE-4: > 100%
B1: RDE-4 dsRBM1 and dsRBM2 point mutant R1^AAR2^AAR3 (K89A/K90A/K217A/K218A) (natural protein, C. elegans, UniProt G5EBF5 1-385, looked up)
chain: MDLTKLTFESVFGGSDVPMKPSRSEDNKTPRNRTDLEMFLKKTPLMVLEEAAKAVYQKTPTWGTVELPEGFEMTLILNEITVKGQATSAAAARQKAAVEYLRKVVEKGKHEIFFIPGTTKEEALSNIDQISDKAEELKRSTSDAVQDNDNDDSIPTSAEFPPGISPTENWVGKLQEKSQKSKLQAPIYEDSKNERTERFLVICTMCNQKTRGIRSKAADAKNLAAWLMWKALEDGIESLESYDMVDVIENLEEAEHLLEIQDQASKIKDKHSALIDILSDKKRFSDYSMDFNVLSVSTMGIHQVLLEISFRRLVSPDPDDLEMGAEHTQTEEIMKATAEKEKLRKKNMPDSGPLVFAGHGSSAEEAKQCACKSAIIHFNTYDFTD

percent recovery normalized to WT RDE-4: > 100%
B2: RDE-4 dsRBM2 point mutant R1R2^AAR3 (K217A/K218A) (natural protein, C. elegans, UniProt G5EBF5 1-385, looked up)
chain: B1 chain with A89K, A90K

percent recovery normalized to WT RDE-4: > 100%
B3: RDE-4 dsRBM1 point mutant R1^AAR2R3 (K89A/K90A) (natural protein, C. elegans, UniProt G5EBF5 1-385, looked up)
chain: B1 chain with A217K, A218K

percent recovery normalized to WT RDE-4: ~72%
B4: RDE-4 truncation R3 (dsRBM3 only, begins with M244) (domain or fragment, C. elegans, UniProt G5EBF5 244-385, looked up)
chain: MVDVIENLEEAEHLLEIQDQASKIKDKHSALIDILSDKKRFSDYSMDFNVLSVSTMGIHQVLLEISFRRLVSPDPDDLEMGAEHTQTEEIMKATAEKEKLRKKNMPDSGPLVFAGHGSSAEEAKQCACKSAIIHFNTYDFTD
